Test results: US20120100070A1

Molecular target: GLP-1R-GFP stably expressed on HEK293 cells

- EC50 of peptide triggered cyclic AMP (cAMP) accumulation: 5 nM
Substance: GLP-1 (L-GLP-1, [Ala8]GLP-1-Ahx-Cys) (peptide)
